These results are taken from patent US20230272113A1.

Substitutions are numbered along the chain they refer to.

This experiment addresses human FLT3 on transfected CHO cells (human) (UniProt P36888). The experiment can be described thus: FACS, scFv on CHO-human FLT3 cells pre-incubated with FLT3 ligand (competitor). On the technique in general: Flow cytometry measures light scatter and fluorescence of single cells or particles in a stream.

B1: FL-21 (scFv)
scFv: QVTLKESGPALVKPTETLTLTCTFSGFSLSNARMGVSWIRQPPGKALEWLAHIFSNDEKSYSTSLKSRLTISKDTSKSQVVLTMTNMDPVDTATYYCARIPGYGGNFYYHYYGMDVWGQGTTVTVSSGGGGSGGGGSGGGGSDIQMTQSPSSLSASVGDRVTITCRTSRGIRNDLGWYQQIPGRAPKRLIYAASTLQSGVPSRFSGSGSGTEFTLTISSLQPEDFATYYCLQHNNFPWTFGQGTKVEIK
The molecule B1 registered a median [+ligand]/median [w/o ligand]*100 of more than 75%.

B2: FL-6 (scFv)
scFv: QVTLKESGPTLVKPTETLTLTCTLSGFSLNNARMAVSWIRQPPGKTLEWLAHIFSNDEKSYSPSLKSRLTISKDTSKSQVVLTMTNMDPEDTATYYCARIVGYGTGWYGFFDYWGQGILVTVSSGGGGSGGGGSGGGGSDIQMTQSPSSLSASVGDRVTITCRASQGIRNDLGWFQQKPGKAPKRLIYAASVLQSGVPSRFSGSGSGTEFTLTISSLQPEDFATYYCLQHNSYPLTFGGGTKVDIK
As to B2, the median [+ligand]/median [w/o ligand]*100 is more than 75%.

B3: FL-20 (scFv)
scFv: B2 scFv with T10A, P63T, G173A, F175Y, V192S, D244E
B3 yielded a median [+ligand]/median [w/o ligand]*100 of more than 75%.

B4: FL-19 (scFv)
scFv: QVTLKESGPTLVKPTETLTLTCTVSGFSLSYARMGVSWIRQPPGKALEWLAQIFSNDEKSYSTSLKSRLTISKDTSKSQVVLTMTDMDPEDTATYYCARIVGYGTGWYGYFDYWGQGTQVTVSSGGGGSGGGGSGGGGSDIQMTQSPSSLSASVGDRVTITCRASQDIGDDLGWYQQKPGKAPKRLIYAASTLQSGVPFRFSGSGSGTDFTLTISSLQPEDFATYYCLQHNSYPLTFGGGTKVEIK
B4: the median [+ligand]/median [w/o ligand]*100 is more than 75%.

B5: FL-10 (scFv)
scFv: QVTLKESGPVLVKPTETLTLTCTVSGFSFRNARMGVSWIRQPPGKALEWLAHIFSNDEKSYSTSLKSRLTISKDTSKSQVVLTLTNMDPVDTATYFCARMPEYSSGWSGAFDIWGQGTMVTVSSGGGGSGGGGSGGGGSDIQMTQSPSSLSASVGDRVTITCRASQDIRDDLGWYQQKPGNAPKRLIYGASTLQSGVPSRFSGSGSGTEFTLTISSLQPEDFATYYCLQHNSYPLTFGGGTKVDIK
Turning to B5, the median [+ligand]/median [w/o ligand]*100 is more than 75%.

B6: FL-7 (scFv)
scFv: QVTLKESGPTLVKPTETLTLTCTVSGFSLNNARMGVSWIRQPPGKALEWLAHIFSNDEKSYSTSLKNRLTISKDSSKTQVVLTMTNVDPVDTATYYCARIVGYGTGWFGYFDYWGQGTQVTVSSGGGGSGGGGSGGGGSDIQMTQSPSSLSASVGDRVTITCRASQDIRTDLAWYQQKPGKAPKRLIYAASSLQSGVPSRFSGSGSGTEFTLTISSLQPEDFATYYCLQHNRYPLTFGGGTKVDIK
B6 gave a median [+ligand]/median [w/o ligand]*100 of more than 75%.

B7: FL-3 (scFv)
scFv: QVTLKESGPALVKPTETLTLTCTVSGFSLSNARMAVSWIRQPPGKALEWLAHIFSNGEKSYSTSLKSRLTISKDTSKTQVVLTMTNTDPVDTATYFCARIVGYSDWLLPFDHWGQGIMVTVSSGGGGSGGGGSGGGGSDIQMTQSPSSLSASVGDRVTITCRASQNINRFLNWYQQKPGKAPKLLIYAASSLQSGVPSRFSGSGSGTDFTLTISSLQPEDFATYYCLQHNSYPWTFGQGTKVDIK
As to B7, the median [+ligand]/median [w/o ligand]*100 is more than 75%.

B8: FL-18 (scFv)
scFv: QVTLKESGPVLVKPTQTLTLTCTFSGFSLSNARMGVSWIRQPPGKALEWLAHIFSNDEKSFSTSLKNRLTISKDTSKSQVVLTMTNMDPVDTATYYCARMVGYGSGWYAYFDYWGQGTQVTVSSGGGGSGGGGSGGGGSDIQMTQSPSSLSASVGDRVTITCRASQSISSYLNWYQQKPGKAPKLLIYAASSLQSGVPSRFSGSGSGTDFTLTISSLQPEDFATYYCLQHNSYPLTFGGGTKVEIK
The molecule B8 came in with a median [+ligand]/median [w/o ligand]*100 of more than 75%.

B9: FL-16 (scFv)
scFv: QVTLKESGPVLVKPTETLTLTCTVSGFSLRNARMAVSWIRQPPGKTLEWLAHIFSNDEKSYSTSLKSRLTISKDTSKSQVVLTMTNMDPVDTATYYCARIVGYGSGWYGYFDYWGQGTLVTVSSGGGGSGGGGSGGGGSDIQMTQSPSSVSASVGDRVTITCRASQDIRYDLAWYQQKPGKAPKRLIYAASSLQSGVPSRFSGSGSGTEFTLTISSLQPEDFATYYCLQHNFYPLTFGGGTKVEIK
B9 displayed a median [+ligand]/median [w/o ligand]*100 of more than 75%.

B10: FL-17 (scFv)
scFv: QVTLKESGPTLVKPTETLTLTCTVSGFSLSNARMGVSWIRQPPGKALEWLANIFSNDEKSYSTSLKSRLTISKGTSKSQVVLTMTNVNPVDTGTYYCARIVGYGSGWYGYFDYWGQGTLVTVSSGGGGSGGGGSGGGGSDIQMTQSPSSLSASVGDRVTITCRASQDIRNDLGWYQQKPGKAPKRLIYATSIRQSGVPSRFTGSGSGTEFTLTISGLQPEDFATYFCLQHNSFPLTFGGGTKVEIK
B10 came in with a median [+ligand]/median [w/o ligand]*100 of more than 75%.

B11: FL-5 (scFv)
scFv: QVTLKESGPMLVKPTETLTLTCTFSGFSLRNARMGVSWIRQPPGKALEWLAHIFWNDEKSYSTSLKSRLTISKDTSKSQVVLTMTNMDPVDTATYYCARIPYYGSGSYNYGMDVWGQGTTVTVSSGGGGSGGGGSGGGGSDIQMTQSPSSLSASVGDRVTITCRASQGIRNDLGWYQQKPGKAPKRLIYAASSLQSGVPSRFSGSGSGTEFTLTISSLQPEDFATYYCLQHNTYPLTFGGGTKVDIK
B11 yielded a median [+ligand]/median [w/o ligand]*100 of more than 75%.

B12: FL-8 (scFv)
scFv: QVTLKESGPALVKPTETLTLTCTVSGFSLSYARMGVSWIRQPPGKALEWLAQIFSNDEKSYSTSLKSRLTISKGTSNSQVVLTMTNMDPEDTATYYCARIVGYGTGWYGFFDYWGQGILVTVSSGGGGSGGGGSGGGGSDIQMTQSPSSLSASVGDRVTITCRASQGIRNDLGWYQQKPGKAPKRLIYAASSLQSGVPSRFSGSGSGTEFTLTISSLQPEDFATYYCLQHNSYPLTFGGGTKVDIK
Turning to B12, the median [+ligand]/median [w/o ligand]*100 is more than 75%.

B13: FL-12 (scFv)
scFv: B12 scFv with Y31N, Q52N, N77K, T105S, F110Y, I118T, K184Q, D244E
On to B13, for which the median [+ligand]/median [w/o ligand]*100 is more than 75%.

B14: FL-2 (scFv)
scFv: QVTLKESGPVLVKPTETLTLTCTVSGFSLRNARMGVSWIRQPPGKALEWLAHIFSNDEKTYSTSLKSRLTISRDTSKGQVVLTMTKMDPVDTATYYCARIPYYGSGSHNYGMDVWGQGTTVTVSSGGGGSGGGGSGGGGSDIQMTQSPSSLSASVGDRVTITCRASQDIRNDFGWYQQKPGKAPQRLLYAASTLQSGVPSRFSGSGSGTEFTLTISSLQPEDFATYYCLQYNTYPWTFGQGTKVEIK
B14 yielded a median [+ligand]/median [w/o ligand]*100 of more than 75%.

B15: FL-1 (scFv)
scFv: QVTLKESGPVLVKPTETLTLTCTVSGFSLINARMGVSWIRQPPGKALEWLAHIFSNAEKSYRTSLKSRLTISKDTSKSQVVLTMTNMDPVDTATYYCARIPGYGGNGDYHYYGMDVWGQGTTVTVSSGGGGSGGGGSGGGGSDIQMTQSPSSLSASLGDRVTITCRASQGIRNDLGWYQQKPGKAPKRLIYASSTLQSGVPSRFSGSGSGTEFTLTISSLQPEDFATYYCLQHNNFPWTFGQGTKVEIK
On to B15, for which the median [+ligand]/median [w/o ligand]*100 was more than 75%.

B16: FL-4 (scFv)
scFv: QVTLKESGPALVKPTETLTLTCTLSGFSLNNAKMGVSWIRQPPGKALEWLAHIFSNDEKSYSTSLKSRLTISKDTSKGQVVLTMTNMDPVDTATYYCARIVGYGSGWYGYFDYWGQGTLVTVSSGGGGSGGGGSGGGGSDIQMTQSPSSLSASVGDRVTITCRASQDIRDDLGWYQQKPGNAPKRLIYGASTLQSGVPSRFSGSGSGTEFTLTISSLQPEDFATYYCLQHNSYPLTFGGGTKVDIK
The molecule B16 came in with a median [+ligand]/median [w/o ligand]*100 of more than 75%.

B17: FL-11 (scFv)
scFv: B16 scFv with A10V, H52Q, D57G, A98S, D167G, D170N, N181K, D244E
As to B17, the median [+ligand]/median [w/o ligand]*100 was more than 75%.

B18: FL-14 (scFv)
scFv: B16 scFv with K33R, G35A, A46T, D170N, N181K, G189A, D244E
For the molecule B18, the median [+ligand]/median [w/o ligand]*100 is more than 75%.

B19: FL-15 (scFv)
scFv: B16 scFv with K33R, G35A, A46T, R169G, D170N, N181K, G189A, T192S, D244E
Turning to B19, the median [+ligand]/median [w/o ligand]*100 was more than 75%.

B20: FL-9 (scFv)
scFv: QVTLKESGPTLVKPTETLTLTCTVSGFSLSNARMGVSWIRQPPGKALEWLAHIFSNDEKSYSTSLKSRLTISKDTSKSQVVLTMTNMDPVDTATYYCARIPGYGGNFYYHYYGMDVWGQGTTVTVSSGGGGSGGGGSGGGGSDIQMTQSPSSLSASVGDRVTITCRASQGIRNDLAWYQQKPGKAPKRLIYAASTVQSGVPSRFSGSGSGTEFALTISSLQPEDFATYYCLQHNSFPWTFGQGTKVDIK
As to B20, the median [+ligand]/median [w/o ligand]*100 is more than 75%.

B21: FL-13 (scFv)
scFv: QVTLKESGPTLVKPTETLTLTCTLSGFSLNNARMGVSWIRQPPGKALEWLAHIFSNDEKSYSTSLKNRLTISKDSSKTQVVLTMTNVDPVDTATYYCARIVGYGSGWYGFFDYWGQGTLVTVSSGGGGSGGGGSGGGGSDIQMTQSPSSLSASVGDRVTITCRASQGIRNDLGWYQQKPGKAPKRLIYAASTLQSGVPSRFSGSGSGTEFTLTISSLQPEDFATYYCLQHNSYPLTFGGGTKVEIK
Consider B21, for which the median [+ligand]/median [w/o ligand]*100 was more than 75%.
